Where a chain is given by its changes, count along the chain named. Names and notes keep the numbering of the source.
B1: Gal2_M435I: M435I exchange introduced into wild-type Gal2 (protein, UniProt P13181 1-574, looked up, variant M435I)
Galactose transporter: MAVEENNMPVVSQQPQAGEDVISSLSKDSHLSAQSQKYSNDELKAGESGSEGSQSVPIEIPKKPMSEYVTVSLLCLCVAFGGFMFGWDTGTISGFVVQTDFLRRFGMKHKDGTHYLSNVRTGLIVAIFNIGCAFGGIILSKGGDMYGRKKGLSIVVSVYIVGIIIQIASINKWYQYFIGRIISGLGVGGIAVLCPMLISEIAPKHLRGTLVSCYQLMITAGIFLGYCTNYGTKSYSNSVQWRVPLGLCFAWSLFMIGALTLVPESPRYLCEVNKVEDAKRSIAKSNKVSPEDPAVQAELDLIMAGIEAEKLAGNASWGELFSTKTKVFQRLLMGVFVQMFQQLTGNNYFFYYGTVIFKSVGLDDSFETSIVIGVVNFASTFFSLWTVENLGHRKCLLLGAATMMACMVIYASVGVTRLYPHGKSQPSSKGAGNCIIVFTCFYIFCYATTWAPVAWVITAESFPLRVKSKCMALASASNWVWGFLIAFFTPFITSAINFYYGYVFMGCLVAMFFYVFFFVPETKGLSLEEIQELWEEGVLPWKSEGWIPSSRRGNNYDLEDLQHDDKPWYKAMLE
B2: Gal2_ep3.3: Gal2 epPCR clone with mutations T219S M255L R267C L299S N346I E528D (protein, UniProt P13181 1-574, looked up, variant T219S M255L R267C L299S N346I E528D)
Galactose transporter: B1 Galactose transporter with T219S, M255L, R267C, L299S, N346I, I435M, E528D
B3: Gal2_ep3.1: Gal2 epPCR clone with mutations M107K V239L N376Y M435I L558S (protein, UniProt P13181 1-574, looked up, variant M107K V239L N376Y M435I L558S)
Galactose transporter: B1 Galactose transporter with M107K, V239L, N376Y, L558S

Assays:
Format in all cases: cell-based, Saccharomyces cerevisiae
EBY.VW4000 = test: Serial dilution drop test on glucose and galactose media
Procedure: The transformants were cultivated in 5 ml SCM-ura with 20 g/l maltose at 30°, washed with water and adjusted to an OD600 of 1. Thereof it followed a serial dilution. 5 μl were dropped onto the respective media and it was incubated for three days at 30°. As a control for the dilution SCM-ura with 20 g/l maltose was taken. The cells of the mutated transporters were dropped onto SCD-ura with 0.2% and 2% glucose, as well as SCG-ura with 0.2% and 2% D-galactose to test their functionality. Furthermore the wild type, Gal2_ep3.1 and Gal2_N376Y were used for comparison.
FIG. 4: Drop test of Gal2_M435I in EBY.VW4000 after three days at 30°. Several dilutions from left to right were dropped (undiluted, 1:10, 1:100, 1:1000).
(§1) For easy comparison of growth of different S. cerevisiae strains under various growth conditions a serial dilution spot assay was performed. Cells were grown in liquid culture to exponential phase in appropriate medium, collected by centrifugation (2000×g, 2 min), washed twice with sterile water and then resuspended to an OD600 of 1.0 in selective medium without carbon source. From this cell suspension a ten-fold serial dilution was prepared in selective medium (four dilution steps). 6 μl of each cell suspension were spotted on plates of the media to be examined and allowed to dry. Plates were incubated at 30° C.

AFY10 = test: Serial dilution drop test on xylose and xylose-glucose media
Procedure: The transformants were cultivated in 5 ml SCE-ura-leu with 2% ethanol at 30°, washed with water and adjusted to an OD600 of 1. Thereof it followed a serial dilution. 5 μl were dropped onto the respective media and it was incubated for five days at 30°. As a control for the dilution SCE-ura-leu with 2% ethanol was taken. The cells of the mutated transporters were dropped onto SCX-ura-leu with 0.2% and 2% D-xylose, as well as SC-ura-leu with 1% D-xylose with 4% D-glucose and SC-ura-leu with 0.2% D-xylose and 2% D-glucose to test their functionality. Furthermore the wild type and Gal2_ep3.1 were used for comparison.
FIG. 5: Drop test of Gal2_M435I in AFY10 after five days at 30°. Several dilutions were dropped from left to right (undiluted, 1:10, 1:100, 1:1000).
FIG. 6: Drop test of Gal2_N376F, N376F+M435I and N376Y+M435I in AFY10 after five days at 30°. Several dilutions were dropped from left to right (undiluted, 1:10, 1:100, 1:1000). But on 20 g/l xylose the order was different (undiluted, 1:100, 1:1000, 1:10).
as §1
To characterize the different constructs which all were verified by sequencing they were transformed together with vector YEp181_pHXT7-optXI_Clos into competent AFY10 cells and drop tests were performed.

AFY10X = test: epPCR-screening by replica-plating on xylose plus glucose media; conditions: media with 1% xylose and increasing amounts of glucose (up to 5%)
Text: Mutants of GAL2 were created using error-prone PCR (epPCR) and then screened in AFY10X as described in Farwick et al. (2014). This method is faster than evolutionary engineering experiments and more often generates multiple mutations per ORF that might have a unique combined effect. On the downside, there might be more silent mutations among the increased number of mutations which might aggravate the identification of the relevant mutations in each clone. The GAL2 ORF was amplified in an epPCR with short amplification primers, applying various mutation rates, and the purified fragments then again amplified for recombinational cloning in a second PCR. Functional plasmids were in vivo assembled from PCR fragments and linearized p426H7 vector directly in the screening strain AFY10X. Transformants were plated out on selective SCE2 plates and subsequently screened. Colonies were tested for improved growth on media with 1% xylose and increasing amounts of glucose (up to 5%) by replica-plating. Seven clones were selected and grown in SCE2 ura^− leu^−+G418+2-DOG and samples of these cultures streaked out on plates for comparison and to obtain single colonies. Five of these seven clones were confirmed to grow on xylose glucose media. The plasmids of two clones were successfully isolated as described (yeast DNA was digested with EcoRI) and sequenced.

[1] = drop test, FIG. 4, versus wild-type Gal2

| Molecule | growth on glucose (EBY.VW4000; 2 g/l and 20 g/l glucose) | uptake of galactose (EBY.VW4000; [1]) | uptake of glucose (EBY.VW4000; [1]) | growth on low xylose (AFY10; 0.2% (2 g/l) xylose) | growth on high xylose (AFY10; 2% (20 g/l) xylose, compared within the same drop test) | growth on xylose-glucose mixtures (AFY10; FIG. 5) | uptake of xylose (AFY10; drop test, FIG. 5) | growth on medium (xylose + glucose) (AFY10X) |
| --- | --- | --- | --- | --- | --- | --- | --- | --- |
| B1 | much slower | no effect | strongly reduced | No growth | slow growth | No growth | reduced | – |
| B2 | – | – | – | – | – | – | – | 1 + 3 |
| B3 | – | – | – | – | – | – | – | 1 + 5 |
